Columns and labels:
L-selectin [1] = target: T1, L-selectin (Homo sapiens, UniProt P14151 P14151:39-332); experiment: competition; ligand beacon (SEQ:6); 200 or 800 nM aptamer, SHMCK buffer 1 mM MgCl2 1 mM CaCl2, 4 uM tRNA, pH 7.4, 37C; also detected in plasma; conditions: tags: R & D Systems
T1 sequence: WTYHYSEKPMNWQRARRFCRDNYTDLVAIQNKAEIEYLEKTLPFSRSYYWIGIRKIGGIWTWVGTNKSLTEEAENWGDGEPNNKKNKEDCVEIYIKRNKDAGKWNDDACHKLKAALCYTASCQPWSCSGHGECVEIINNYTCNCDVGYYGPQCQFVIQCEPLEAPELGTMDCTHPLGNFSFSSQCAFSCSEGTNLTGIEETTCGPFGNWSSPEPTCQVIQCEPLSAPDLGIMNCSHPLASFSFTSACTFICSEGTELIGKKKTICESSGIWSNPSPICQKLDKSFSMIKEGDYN
Procedure: (§1) Open circles represent the fluorescence signal obtained when the 100 nM PDGF aptamer was first incubated with 100 nM PDGF ligand beacon before the protein was added. Closed circles indicate the signal generated when 100 nM PDGF ligand beacon was mixed with increasing concentration of the PDGF AB-dimer in the absence of the aptamer. TAQ DNA Polymerase An assay using constant concentrations of TAQ nucleic acid ligand and TAQ ligand beacon, and varying concentrations of TAQ DNA polymerase, was carried out as described above. Again, the fluorescence emission decreased with increasing amounts of the ligand Taq Polymerase. Human L-Selectin A fixed concentration of L-selectin aptamer was mixed with increasing concentration of human L-selectin in SHMCK buffer [20 mM HEPES, 120 mM NaCl, 5 mM KCl, 1 mM MgCl_2, 1 mM CaCl_2, 4 µM tRNA, (pH 7.4)] and incubated for 10 minutes at 37° C. Then, L-selectin ligand beacon was added to a final concentration equivalent to that of the aptamer, incubated additional 10 minutes at 37° C. and fluorescence was measured. The results are depicted in FIGS. 7A and B. It can be seen that the dynamic range of the assay can be easily varied by changing the concentration of the nucleic acid ligand/ligand beacon pair. […] The fluorescence signal was then measured as described above. […]

P-selectin [2] = target: T2, P-selectin (Homo sapiens, UniProt P16109 P16109:42-771); experiment: competition; specificity control, little or no fluorescence change; 200 nM aptamer, SHMCK, 4 uM tRNA, 37C; conditions: tags: R & D Systems
Procedure: (§2) Specifically, L-Selectin nucleic acid ligand (200 nM) was mixed with increasing concentrations of P-Selectin in SHMCK buffer containing 4 µM tRNA. The mixture was incubated at 37° C. for 15 minutes. Then 220 nM L-Selectin ligand beacon was added and the mixture was incubated an additional 10 minutes at the same temperature and fluorescence was measured (FIG. 8C; (•)). P-Selectin nucleic acid ligand (200 nM) was mixed with increasing concentrations of L-Selectin in SHMCK buffer containing 4 µM tRNA at 37° C. for 15 minutes. Then 220 nM P-Selectin ligand beacon was added, incubated for an additional 10 minutes at the same temperature and fluorescence was measured (FIG. 8C; (○)).

P-selectin [3] = target: T2, P-selectin; experiment: competition; ligand beacon (SEQ:8); 200 nM aptamer, SHMCK buffer 1 mM MgCl2 1 mM CaCl2, 4 uM tRNA, pH 7.4, 37C; also detected in plasma; FIG. 3A lists aptamer as SEQ:12; conditions: tags: R & D Systems
Procedure: as §1, with “Human L-Selectin A fixed concentration of L-selectin aptamer was mixed with increasing concentration of human L-selectin in SHMCK buffer [20 mM HEPES, 120 mM NaCl, 5 mM KCl, 1 mM MgCl_2, 1 mM CaCl_2, 4 µM tRNA, (pH 7.4)] and incubated for 10 minutes at 37° C.” left out, “measured.” for “measured. The results are depicted in FIGS. 7A and B. It can be seen that the dynamic range of the assay can be easily varied by changing the concentration of the nucleic acid ligand/ligand beacon pair.”
P-selectin aptamer (200 nM) was mixed with increasing concentration of human P-selectin in SHMCK buffer [20 mM HEPES, 120 mM NaCl, 5 mM KCl, 1 mM MgCl_2, 1 mM CaCl_2, 4µM tRNA, (pH 7.4)] and incubated for 10 minutes at 37° C. Then, P-selectin ligand beacon was added to a final concentration of 200 nM, incubated for additional 10 minutes at 37° C. and fluorescence was measured. […]

L-selectin [4] = target: T1, L-selectin; experiment: competition; specificity control, little or no fluorescence change; 200 nM aptamer, SHMCK, 4 uM tRNA, 37C; conditions: tags: R & D Systems
Procedure: as §2

[5] = target: T3, PDGF-AB (platelet-derived growth factor AB dimer) (Homo sapiens, UniProt P04085;P01127 P04085:87-211,P01127:82-190); experiment: competition; ligand beacon (SEQ:2) fluorescence decreases with protein; 160 nM aptamer, PBSM buffer 1 mM MgCl2, 4 uM tRNA, pH 7.4, 37C; also detected in plasma; FIG. 3A lists aptamer as SEQ:10; conditions: tags: R & D Systems; chain copies: heterodimer A+B (stated); predicted 3-way junction
Procedure: Example 5 Protein Detection Using Ligand Beacon Assays PDGF AB-Dimer The PDGF ligand beacon was used in an assay in which 160 nM PDGF nucleic acid ligand (SEQ ID NO:1) was mixed with an increasing concentration of PDGF AB-dimer in PBSM buffer [10.1 mM Na_2HPO_4, 1.8 mM KH_2PO_4, 137 mM NaCl, 2.7 mM KCl, 1 mM MgCl_2, 4 μM tRNA (pH 7.4)] for 10 minutes at 37° C. Then, ligand beacon (SEQ ID NO:2) was added to a final concentration of 160 nM and the mixture was incubated for 10 minutes at 37° C. A measurement of fluorescein emission at 530 nm was made for each concentration of PDGF using 488 nm monochromatic laser light for excitation in a 96 well format Vistra Fluorimager SI. The average value of fluorescence signals derived from duplicates was plotted against the corresponding log concentration of the concentration PDGF AB-dimer in nanomoles.

[6] = target: T3, PDGF-AB (platelet-derived growth factor …); experiment: competition; specificity control, no concentration-dependent signal reduction; 100 nM aptamer, PBSM, 4 uM tRNA, 37C; conditions: tags: R & D Systems; chain copies: heterodimer A+B (stated); predicted stem-loop
Procedure: In the example shown in FIG. 4C, TAQ-nucleic acid ligand (100 nM) was mixed with increasing concentrations of PDGF in PBSM buffer containing 4 μM tRNA at 37° C. for 10 minutes. Then 110 nM TAQ-ligand beacon was added, incubated for an additional 10 minutes at the same temperature and fluorescence was measured.

Taq DNA polymerase = Taq DNA polymerase (Thermus aquaticus, UniProt P19821 P19821:1-832); experiment: competition; ligand beacon (SEQ:4) fluorescence decreases with protein; PBSM buffer, 4 uM tRNA, 37C; FIG. 3A lists aptamer as SEQ:9; conditions: tags: Roche Molecular Systems; predicted stem-loop
Procedure: as §1

T2 sequence (P16109 42-771, one chain of several): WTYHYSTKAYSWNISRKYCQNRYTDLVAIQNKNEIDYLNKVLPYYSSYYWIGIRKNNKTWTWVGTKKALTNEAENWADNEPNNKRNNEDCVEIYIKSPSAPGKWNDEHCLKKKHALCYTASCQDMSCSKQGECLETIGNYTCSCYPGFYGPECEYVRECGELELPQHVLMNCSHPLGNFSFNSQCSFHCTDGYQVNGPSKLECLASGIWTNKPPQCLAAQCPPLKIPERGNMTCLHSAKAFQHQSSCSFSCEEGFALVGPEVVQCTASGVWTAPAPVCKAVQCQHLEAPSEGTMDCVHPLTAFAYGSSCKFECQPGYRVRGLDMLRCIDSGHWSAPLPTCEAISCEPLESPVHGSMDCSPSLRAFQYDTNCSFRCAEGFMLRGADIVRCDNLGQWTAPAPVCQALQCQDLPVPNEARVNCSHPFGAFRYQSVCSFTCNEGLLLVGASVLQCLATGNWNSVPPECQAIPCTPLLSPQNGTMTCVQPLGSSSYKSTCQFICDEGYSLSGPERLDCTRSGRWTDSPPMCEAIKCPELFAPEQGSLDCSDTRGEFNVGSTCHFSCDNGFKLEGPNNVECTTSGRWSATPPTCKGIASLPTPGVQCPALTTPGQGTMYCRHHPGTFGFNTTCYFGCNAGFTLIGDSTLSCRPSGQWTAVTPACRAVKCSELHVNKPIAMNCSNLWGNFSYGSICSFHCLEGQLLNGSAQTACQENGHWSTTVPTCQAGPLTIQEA
T3 sequence (P01127 82-190, chain 2 of 2, other chains not shown): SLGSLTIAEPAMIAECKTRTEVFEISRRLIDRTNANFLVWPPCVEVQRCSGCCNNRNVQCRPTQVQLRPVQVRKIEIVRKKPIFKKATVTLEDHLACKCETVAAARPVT
Taq DNA polymerase, sequence (P19821 whole entry, one chain of several): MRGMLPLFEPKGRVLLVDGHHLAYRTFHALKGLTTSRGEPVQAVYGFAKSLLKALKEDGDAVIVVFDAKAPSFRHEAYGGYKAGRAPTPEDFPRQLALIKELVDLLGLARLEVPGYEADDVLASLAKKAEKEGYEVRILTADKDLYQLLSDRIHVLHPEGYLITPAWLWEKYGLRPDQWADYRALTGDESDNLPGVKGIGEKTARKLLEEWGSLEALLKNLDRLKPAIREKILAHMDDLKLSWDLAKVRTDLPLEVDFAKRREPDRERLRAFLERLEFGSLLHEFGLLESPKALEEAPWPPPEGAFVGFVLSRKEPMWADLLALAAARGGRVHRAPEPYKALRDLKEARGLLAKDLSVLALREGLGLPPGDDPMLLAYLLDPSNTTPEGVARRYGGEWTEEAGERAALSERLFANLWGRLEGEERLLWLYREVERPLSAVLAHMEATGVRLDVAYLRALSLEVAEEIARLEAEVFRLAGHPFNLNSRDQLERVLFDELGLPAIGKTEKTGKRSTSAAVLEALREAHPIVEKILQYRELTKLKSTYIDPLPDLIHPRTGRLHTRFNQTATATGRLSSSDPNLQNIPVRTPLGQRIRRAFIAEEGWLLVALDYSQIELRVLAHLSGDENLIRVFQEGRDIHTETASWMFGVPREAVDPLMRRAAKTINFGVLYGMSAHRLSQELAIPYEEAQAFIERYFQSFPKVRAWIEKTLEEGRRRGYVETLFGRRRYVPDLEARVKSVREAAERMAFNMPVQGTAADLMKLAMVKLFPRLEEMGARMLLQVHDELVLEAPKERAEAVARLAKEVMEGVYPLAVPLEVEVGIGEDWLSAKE

B1: L-selectin aptamer (ssDNA)
DNA: TAGCCAAGGTAACCAGTACAAGGTGCTAAACGTAATGGCTTCGGCTTAC
Question: Does B1 bind (L-selectin [1])?
Answer: binds

Question: Does B1 bind (P-selectin [2])?
Answer: no binding

B2: P-selectin aptamer (ssRNA)
RNA: CUCAACGAGCCAGGAACAUCGAGGUCAGCAAACGCGAG
modifications: 2'-F at all pyrimidines
Question: Does B2 bind (P-selectin [3])?
Answer: binds

Question: Does B2 bind (L-selectin [4])?
Answer: no binding

B3: PDGF aptamer (ssDNA)
DNA: TGGGAGGGCGCGTTCTTCGTGGTTACTTTTAGTCCCGT
Question: Does B3 bind [5]?
Answer: binds

B4: Taq aptamer (ssDNA)
DNA: TGGCGGAGCGATCATCTCAGAGCATTCTTAGCGTTTTGTTCTTGTGTATGA
Question: Does B4 bind [6]?
Answer: no binding

Question: Does B4 bind (Taq DNA polymerase)?
Answer: binds

Reference: patent publication US6531286, “Homogeneous detection of a target through nucleic acid ligand-ligand beacon interaction” (Gilead Sciences, Inc.)
